Measurements from IntAct's records for PubMed 18093972.

B1: Homeodomain-interacting protein kinase 2 (Mus musculus), Q9QZR5 (parent)
chain: MAPVYEGMASHVQVFSPHTLQSSAFCSVKKLKVEPSSNWDMTGYGSHSKVYSQSKNIPPSQPASTTVSTSLPIPNPSLPYEQTIIFPGSTGHIVVTSASSTSVTGQVLGGPHNLMRRSTVSLLDTYQKCGLKRKSEEIENTSSVQIIEEHPPMIQNNASGATVATATTSTATSKNSGSNSEGDYQLVQHEVLCSMTNTYEVLEFLGRGTFGQVVKCWKRGTNEIVAIKILKNHPSYARQGQIEVSILARLSTESADDYNFVRAYECFQHKNHTCLVFEMLEQNLYDFLKQNKFSPLPLKYIRPVLQQVATALMKLKSLGLIHADLKPENIMLVDPSRQPYRVKVIDFGSASHVSKAVCSTYLQSRYYRAPEIILGLPFCEAIDMWSLGCVIAELFLGWPLYPGASEYDQIRYISQTQGLPAEYLLSAGTKTTRFFNRDTDSPYPLWRLKTPDDHEAETGIKSKEARKYIFNCLDDMAQVNMTTDLEGSDMLVEKADRREFIDLLKKMLTIDADKRVTPIETLNHPFVTMTHLLDFPHSAHVKSCFQNMEICKRRVNMYDTVNQSKTPFITHVAPSTSTNLTMTFNNQLTTVHNQAPTTSSATLSLANPEVSILNYQSALYQPSAASMAAVAPRSMPLQTGTAQICARPDPFQQALIVCPPGFQGLQASPSKHAGYSVRMENAVPIVTQAPGAQPLQIQPGLLAQQAWPGGAQQILLPPAWQQLTGVATHTSVQHAAVIPETMAGTQQLADWRNTHAHGSHYNPIMQQPALLTGHVTLPAAQPLNVGVAHVMRQQPTSTTSSRKSKQHQSSVRNVSTCEVTSSQAISSPQRSKRVKENTPPRCAMVHSSPACSTSVTCGWGDVASSTTRERQRQTIVIPDTPSPTVSVITISSDTDEEEEQKHAPTSTVSKQRKNVISCVTVHDSPYSDSSSNTSPYSVQQRTGHNGTNTLDTKGGLENHCTGNPRTIIVPPLKTQASEVLVECDSLGPAISASHHSSSFKSKSSSTVTSTSGHSSGSSSGAIAYRQQRPGPHFQQQQPLNLSQAQQHMAADRTGSHRRQQAYITPTMAQAPYTFPHNSPSHGTVHPHLAAAAHLPTQPHLYTYTAPTALGSTGTVAHLVASQGSARHTVQHTAYPASIVHQVPVSMGPRVLPSPTIHPSQYPAQFAHQTYISASPASTVYTGYPLSPAKVNQYPYI
partner: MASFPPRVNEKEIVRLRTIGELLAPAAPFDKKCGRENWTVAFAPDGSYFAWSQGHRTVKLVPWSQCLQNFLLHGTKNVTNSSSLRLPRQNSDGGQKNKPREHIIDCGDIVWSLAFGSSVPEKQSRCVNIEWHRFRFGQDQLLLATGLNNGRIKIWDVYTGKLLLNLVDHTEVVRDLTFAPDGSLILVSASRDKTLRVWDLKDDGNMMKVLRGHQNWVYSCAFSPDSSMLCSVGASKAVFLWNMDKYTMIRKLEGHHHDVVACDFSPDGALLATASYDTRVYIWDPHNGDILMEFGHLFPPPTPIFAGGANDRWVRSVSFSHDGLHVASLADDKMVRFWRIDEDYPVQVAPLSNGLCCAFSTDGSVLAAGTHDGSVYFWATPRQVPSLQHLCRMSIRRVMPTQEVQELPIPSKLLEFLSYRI

Variants of: B1
Details: with wsb1_human WSB1, Q9Y6I7

effect of a mutation on the interaction | Variant
increasing interaction | K228R
